Here are results for 125 sequences from the supplement of paper PMC9112550, “Optimization of the antimicrobial peptide Bac7 by deep mutational scanning” (BMC Biology, 2022).

This data set has as its system Escherichia coli TOP10. Put plainly: shrunken log2 fold change of peptide-encoding DNA abundance (4.5 h post-induction vs induction); higher = less antimicrobial activity (less host growth inhibition). The note with it: time post-induction: 4.5 h; library: site-saturation at positions 5, 18, 19, 20.
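Note: peptides expressed intracellularly from a pBAD plasmid library in pooled LB shake-flask culture, induced with 0.3% L-arabinose, DNA abundance read by NGS, three biological replicates, DESeq2 with apeglm shrinkage.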

For RRIRSRPPRLPRPRPRPQFRPRP, the “shrunken log2 fold change” value was -0.0597.

As for RRIRARPPRLPRPRPRPWDGPRP, the “shrunken log2 fold change” value was 0.72.

Turning to RRIRTRPPRLPRPRPRPIRTPRP, the “shrunken log2 fold change” value stood at 0.063.

As to RRIRYRPPRLPRPRPRPYELPRP, the “shrunken log2 fold change” value was -0.0164.

As for RRIRARPPRLPRPRPRPVCEPRP, the “shrunken log2 fold change” value stood at 0.836.

For RRIRQRPPRLPRPRPRPVGFPRP, the “shrunken log2 fold change” value was determined as 0.00249.

For RRIRPRPPRLPRPRPRPQQNPRP, the “shrunken log2 fold change” value was 0.076.

RRIRWRPPRLPRPRPRPLTHPRP: the “shrunken log2 fold change” value is -0.00362.

Turning to RRIRERPPRLPRPRPRPCHAPRP, the “shrunken log2 fold change” value was -0.301.

In the case of RRIRKRPPRLPRPRPRPGGFPRP, the “shrunken log2 fold change” value stood at 0.223.

As for RRIRIRPPRLPRPRPRPFKSPRP, the “shrunken log2 fold change” value is -0.023.

Regarding RRIRWRPPRLPRPRPRPPWTPRP, the “shrunken log2 fold change” value is 0.688.

In the case of RRIRRRPPRLPRPRPRPRTWPRP, the “shrunken log2 fold change” value was 1.84.

RRIRPRPPRLPRPRPRPYQHPRP: the “shrunken log2 fold change” value was -0.592.

RRIRFRPPRLPRPRPRPLGFPRP: the “shrunken log2 fold change” value is -0.146.

As for RRIRTRPPRLPRPRPRPMSCPRP, the “shrunken log2 fold change” value is -0.181.

For RRIRLRPPRLPRPRPRPIPKPRP, the “shrunken log2 fold change” value was -0.0415.

With RRIRWRPPRLPRPRPRPARPPRP, the “shrunken log2 fold change” value turned out to be 0.566.

With RRIRYRPPRLPRPRPRPNAQPRP, the “shrunken log2 fold change” value was -0.0122.

Turning to RRIRNRPPRLPRPRPRPDICPRP, the “shrunken log2 fold change” value worked out at 0.0866.

As to RRIRQRPPRLPRPRPRPHDKPRP, the “shrunken log2 fold change” value is -0.773.

For RRIRDRPPRLPRPRPRPLHYPRP, the “shrunken log2 fold change” value is -0.0982.

For the sequence RRIRNRPPRLPRPRPRPALPPRP, the “shrunken log2 fold change” value was determined as 0.248.

RRIRMRPPRLPRPRPRPWGHPRP: the “shrunken log2 fold change” value stood at 0.0533.

For the sequence RRIRIRPPRLPRPRPRPRCWPRP, the “shrunken log2 fold change” value came out at 0.138.

With RRIRQRPPRLPRPRPRPPTRPRP, the “shrunken log2 fold change” value is 0.398.

With RRIRCRPPRLPRPRPRPVLLPRP, the “shrunken log2 fold change” value was -0.385.

With RRIRVRPPRLPRPRPRPYEFPRP, the “shrunken log2 fold change” value turned out to be 2.15.

Regarding RRIRARPPRLPRPRPRPWAIPRP, the “shrunken log2 fold change” value is 0.253.

Take RRIRIRPPRLPRPRPRPVSQPRP: the “shrunken log2 fold change” value is -0.0669.

Regarding RRIRYRPPRLPRPRPRPRSIPRP, the “shrunken log2 fold change” value is -0.276.

As for RRIRQRPPRLPRPRPRPDLHPRP, the “shrunken log2 fold change” value turned out to be 0.00152.

Consider RRIRLRPPRLPRPRPRPEKWPRP, for which the “shrunken log2 fold change” value is -0.0497.

With RRIRFRPPRLPRPRPRPWEAPRP, the “shrunken log2 fold change” value was -0.0969.

Turning to RRIRQRPPRLPRPRPRPLEGPRP, the “shrunken log2 fold change” value is -0.0228.

RRIRIRPPRLPRPRPRPHEPPRP: the “shrunken log2 fold change” value was -0.129.

Take RRIRTRPPRLPRPRPRPFLKPRP: the “shrunken log2 fold change” value is 0.092.

Regarding RRIRLRPPRLPRPRPRPNEMPRP, the “shrunken log2 fold change” value was 0.0287.

In the case of RRIRERPPRLPRPRPRPEFDPRP, the “shrunken log2 fold change” value stood at 0.039.

Turning to RRIRMRPPRLPRPRPRPRSMPRP, the “shrunken log2 fold change” value was -0.00173.

For RRIRVRPPRLPRPRPRPFADPRP, the “shrunken log2 fold change” value is -0.0225.

On to RRIRPRPPRLPRPRPRPVRYPRP, for which the “shrunken log2 fold change” value was 0.346.

As to RRIRVRPPRLPRPRPRPEHDPRP, the “shrunken log2 fold change” value is -0.249.

Consider RRIRERPPRLPRPRPRPRTCPRP, for which the “shrunken log2 fold change” value is -0.0174.

Consider RRIRQRPPRLPRPRPRPTQLPRP, for which the “shrunken log2 fold change” value amounted to 0.375.

For the sequence RRIRLRPPRLPRPRPRPDDKPRP, the “shrunken log2 fold change” value is -0.525.

As to RRIRARPPRLPRPRPRPPGRPRP, the “shrunken log2 fold change” value is 0.742.

Turning to RRIRFRPPRLPRPRPRPNRYPRP, the “shrunken log2 fold change” value is -0.319.

With RRIRIRPPRLPRPRPRPCWKPRP, the “shrunken log2 fold change” value turned out to be 0.00408.

In the case of RRIRERPPRLPRPRPRPTTHPRP, the “shrunken log2 fold change” value was -0.294.

Take RRIRLRPPRLPRPRPRPASCPRP: the “shrunken log2 fold change” value was determined as 0.117.

For the sequence RRIRGRPPRLPRPRPRPINVPRP, the “shrunken log2 fold change” value was -0.248.

With RRIRCRPPRLPRPRPRPSVWPRP, the “shrunken log2 fold change” value came to 0.238.

Turning to RRIRQRPPRLPRPRPRPVNRPRP, the “shrunken log2 fold change” value is 0.00086.

Turning to RRIRRRPPRLPRPRPRPPTRPRP, the “shrunken log2 fold change” value turned out to be 0.688.

RRIRYRPPRLPRPRPRPPSYPRP: the “shrunken log2 fold change” value was -0.156.

As to RRIRRRPPRLPRPRPRPPEYPRP, the “shrunken log2 fold change” value turned out to be 0.0513.

For the sequence RRIRCRPPRLPRPRPRPEFYPRP, the “shrunken log2 fold change” value was -0.356.

Regarding RRIRCRPPRLPRPRPRPNTVPRP, the “shrunken log2 fold change” value is -0.768.

In the case of RRIRGRPPRLPRPRPRPQRVPRP, the “shrunken log2 fold change” value came out at 0.423.

Consider RRIRGRPPRLPRPRPRPELKPRP, for which the “shrunken log2 fold change” value is 0.336.

With RRIRPRPPRLPRPRPRPKYVPRP, the “shrunken log2 fold change” value was -0.132.

As for RRIRIRPPRLPRPRPRPAYKPRP, the “shrunken log2 fold change” value is -1.89.

As for RRIRIRPPRLPRPRPRPDKEPRP, the “shrunken log2 fold change” value is -0.0239.

For RRIRKRPPRLPRPRPRPGREPRP, the “shrunken log2 fold change” value worked out at 0.913.

For the sequence RRIRTRPPRLPRPRPRPGHWPRP, the “shrunken log2 fold change” value was determined as 0.0708.

Take RRIRWRPPRLPRPRPRPQMTPRP: the “shrunken log2 fold change” value was -0.0595.

RRIRTRPPRLPRPRPRPKHAPRP: the “shrunken log2 fold change” value turned out to be 0.0369.

For RRIRMRPPRLPRPRPRPEPAPRP, the “shrunken log2 fold change” value came to 3.51.

Take RRIRNRPPRLPRPRPRPSVRPRP: the “shrunken log2 fold change” value is -0.00578.

In the case of RRIRRRPPRLPRPRPRPFYVPRP, the “shrunken log2 fold change” value was -0.0483.

RRIRRRPPRLPRPRPRPLYTPRP: the “shrunken log2 fold change” value was -0.132.

As to RRIRLRPPRLPRPRPRPGYCPRP, the “shrunken log2 fold change” value was -0.416.

Regarding RRIRWRPPRLPRPRPRPLYFPRP, the “shrunken log2 fold change” value was -0.613.

As to RRIRQRPPRLPRPRPRPVWYPRP, the “shrunken log2 fold change” value was -0.254.

Turning to RRIRQRPPRLPRPRPRPHSMPRP, the “shrunken log2 fold change” value is -0.438.

For the sequence RRIRKRPPRLPRPRPRPGWIPRP, the “shrunken log2 fold change” value is 1.07.

Take RRIRCRPPRLPRPRPRPRAAPRP: the “shrunken log2 fold change” value was 0.779.

On to RRIRKRPPRLPRPRPRPWDNPRP, for which the “shrunken log2 fold change” value turned out to be 0.0448.

RRIRNRPPRLPRPRPRPGPFPRP: the “shrunken log2 fold change” value came to 0.00962.

Take RRIRQRPPRLPRPRPRPEDKPRP: the “shrunken log2 fold change” value was determined as 0.0591.

With RRIRQRPPRLPRPRPRPGPEPRP, the “shrunken log2 fold change” value came to 0.0674.

Consider RRIRDRPPRLPRPRPRPWVNPRP, for which the “shrunken log2 fold change” value stood at 0.0215.

As for RRIRARPPRLPRPRPRPDNIPRP, the “shrunken log2 fold change” value was -0.256.

RRIRDRPPRLPRPRPRPGHFPRP: the “shrunken log2 fold change” value worked out at 0.0123.

With RRIRFRPPRLPRPRPRPGIQPRP, the “shrunken log2 fold change” value is -0.11.

For RRIRTRPPRLPRPRPRPWGCPRP, the “shrunken log2 fold change” value is -0.151.

As for RRIRKRPPRLPRPRPRPADYPRP, the “shrunken log2 fold change” value is -0.0391.

For the sequence RRIRSRPPRLPRPRPRPQGDPRP, the “shrunken log2 fold change” value turned out to be 0.36.

As for RRIRHRPPRLPRPRPRPTLKPRP, the “shrunken log2 fold change” value is 1.82.

For the sequence RRIRGRPPRLPRPRPRPDCTPRP, the “shrunken log2 fold change” value was 0.615.

RRIRNRPPRLPRPRPRPKIYPRP: the “shrunken log2 fold change” value is -0.0429.

Consider RRIRGRPPRLPRPRPRPYGSPRP, for which the “shrunken log2 fold change” value was -0.303.

Regarding RRIRQRPPRLPRPRPRPPCQPRP, the “shrunken log2 fold change” value was 0.0396.

Take RRIRLRPPRLPRPRPRPIFRPRP: the “shrunken log2 fold change” value is 0.00696.

For RRIRNRPPRLPRPRPRPGEIPRP, the “shrunken log2 fold change” value stood at 0.627.

With RRIRKRPPRLPRPRPRPNSYPRP, the “shrunken log2 fold change” value is 0.141.

RRIRFRPPRLPRPRPRPCGLPRP: the “shrunken log2 fold change” value was -0.00916.

Regarding RRIRARPPRLPRPRPRPDFAPRP, the “shrunken log2 fold change” value worked out at 0.533.

On to RRIRERPPRLPRPRPRPISIPRP, for which the “shrunken log2 fold change” value is -0.258.

Turning to RRIRARPPRLPRPRPRPGRGPRP, the “shrunken log2 fold change” value amounted to 0.486.

For the sequence RRIRHRPPRLPRPRPRPQFTPRP, the “shrunken log2 fold change” value is -0.182.

RRIRGRPPRLPRPRPRPQDPPRP: the “shrunken log2 fold change” value was 0.337.

For the sequence RRIRYRPPRLPRPRPRPEANPRP, the “shrunken log2 fold change” value is -0.127.

Regarding RRIRTRPPRLPRPRPRPNHTPRP, the “shrunken log2 fold change” value was -0.312.

For RRIRNRPPRLPRPRPRPRYLPRP, the “shrunken log2 fold change” value is -0.547.

For the sequence RRIRGRPPRLPRPRPRPLTPPRP, the “shrunken log2 fold change” value amounted to 1.43.

In the case of RRIRDRPPRLPRPRPRPIVDPRP, the “shrunken log2 fold change” value was -0.000946.

For RRIRMRPPRLPRPRPRPSRSPRP, the “shrunken log2 fold change” value is 0.902.

Turning to RRIRSRPPRLPRPRPRPWNAPRP, the “shrunken log2 fold change” value was -0.443.

RRIRARPPRLPRPRPRPNNQPRP: the “shrunken log2 fold change” value was -0.309.

With RRIRTRPPRLPRPRPRPVTRPRP, the “shrunken log2 fold change” value is 0.229.

With RRIRKRPPRLPRPRPRPHPRPRP, the “shrunken log2 fold change” value is 1.27.

Turning to RRIRIRPPRLPRPRPRPEQNPRP, the “shrunken log2 fold change” value was -0.204.

On to RRIRKRPPRLPRPRPRPDIAPRP, for which the “shrunken log2 fold change” value is 1.

For RRIRQRPPRLPRPRPRPVSYPRP, the “shrunken log2 fold change” value worked out at 0.0822.

In the case of RRIRCRPPRLPRPRPRPKYCPRP, the “shrunken log2 fold change” value was -0.264.

As for RRIRKRPPRLPRPRPRPKSEPRP, the “shrunken log2 fold change” value stood at 0.0409.

As for RRIRQRPPRLPRPRPRPIHSPRP, the “shrunken log2 fold change” value was -0.138.

Regarding RRIRHRPPRLPRPRPRPNSVPRP, the “shrunken log2 fold change” value was -0.00436.

On to RRIRGRPPRLPRPRPRPCGYPRP, for which the “shrunken log2 fold change” value turned out to be 0.216.

Take RRIRHRPPRLPRPRPRPKQDPRP: the “shrunken log2 fold change” value was -0.557.

Take RRIRRRPPRLPRPRPRPQWGPRP: the “shrunken log2 fold change” value turned out to be 0.323.

Regarding RRIRGRPPRLPRPRPRPNVSPRP, the “shrunken log2 fold change” value was -0.0528.

With RRIRCRPPRLPRPRPRPQAQPRP, the “shrunken log2 fold change” value was 0.315.
